# Results reported in patent US20240344138A1, “TARGETED THERAPIES IN CANCER” (Feng Biosciences, Inc, priority 2021, published 2024).
# B1: Navicixizumab plus chemotherapy: navicixizumab plus chemotherapy (e.g., capecitabine in breast; docetaxel, cabazitaxel in prostate) (antibody, chains of the INN, looked up, V domains shown)
# VH: QVQLVQSGAEVKKPGASVKISCKASGYSFTAYYIHWVKQAPGQGLEWIGYISNYNRATNYNQKFKGRVTFTTDTSTSTAYMELRSLRSDDTAVYYCARDYDYDVGMDYWGQGTLVTVSS
# VL: DIVMTQSPDSLAVSLGERATISCRASESVDNYGISFMKWFQQKPGQPPKLLIYAASNQGSGVPDRFSGSGSGTDFTLTISSLQAEDVAVYYCQQSKEVPWTFGGGTKVEIK
# VH2: QVQLVQSGAEVKKPGASVKVSCKASGYTFTNYWMHWVRQAPGQGLEWMGDINPSNGRTSYKEKFKRRVTLSVDKSSSTAYMELSSLRSEDTAVYFCTIHYDDKYYPLMDYWGQGTLVTVSS
# VL2: B1 VL
# modifications: plus chemotherapy
# B2: PARPi/Immune Checkpoint Inhibitor/Navicixizumab (antibody, chains of the INN, looked up, V domains shown)
# VH: B1 VH
# VL: B1 VL
# VH2: B1 VH2
# VL2: B1 VL
# modifications: with PARP inhibitor and checkpoint inhibitor
# B3: PARPi/Immune Checkpoint Inhibitor/Navixicizumab (antibody, chains of the INN, looked up, V domains shown)
# VH: B1 VH
# VL: B1 VL
# VH2: B1 VH2
# VL2: B1 VL
# modifications: with PARP inhibitor and checkpoint inhibitor
# B4: Navixicizumab (antibody, chains of the INN, looked up, V domains shown)
# VH: B1 VH
# VL: B1 VL
# VH2: B1 VH2
# VL2: B1 VL
# B5: PARPi/Navicixumab (antibody, chains of the INN, looked up, V domains shown)
# VH: B1 VH
# VL: B1 VL
# VH2: B1 VH2
# VL2: B1 VL
# modifications: with PARP inhibitor
# B6: PARPi/Navicixizumab (antibody, chains of the INN, looked up, V domains shown)
# VH: B1 VH
# VL: B1 VL
# VH2: B1 VH2
# VL2: B1 VL
# modifications: with PARP inhibitor
# Legend:
# Assay type in all cases: in vivo, human
# [1] = test system: locally advanced/metastatic HER2-negative breast cancer; experiment: Second-line clinical trial of navicixizumab/chemotherapy or navicixizumab/PARP inhibitor, outcome by TME phenotype; settings: plus chemotherapy group
# Experimental: A clinical trial is run to determine whether locally advanced/metastatic HER2-negative breast cancer tumor microenvironment phenotypes correlate to clinical responses when patients are treated with a combination of Navicixizumab/chemotherapy or Navicixizumab/PARP inhibitor in the second-line setting. […] Patients receive either Navicixizumab/chemotherapy (BRCA WT and hormone receptor-positive) or Navicixizumab/PARP inhibitor (BRCA mutant or triple-negative for ER/PR/HER2). RNA gene signatures are analyzed from tumor samples acquired before any treatments and TME phenotypes are determined. Patients are followed for clinical response and progression-free survival. […] BRCA WT/hormone receptor-positive/HER2-negative breast cancer patients receive a regimen of Navicixizumab plus chemotherapy (e.g., capecitabine, etc.). BRCA mutant or triple-negative for ER/PR/HER2 breast cancer patients receive a regimen of Navicixizumab plus a PARP inhibitor (e.g., Rucaparib, Olaparib, etc.). […] The correlation between each TME phenotype is tested against clinical outcome data. In biomarker positive tumors, represented by angiogenic (A) and immune suppressed (IS) phenotypes, the use of Navicixizumab combinations confers benefit in comparison to patients classified as biomarker negative, represented by immune active (IA) and immune desert (ID) TME phenotype classes as shown in the TABLE 27 and TABLE 28.
# [2] = test system: castration-resistant metastatic prostate cancer; experiment: Third-line clinical trial of navicixizumab/chemotherapy or navicixizumab/PARP inhibitor, outcome by TME phenotype; settings: plus chemotherapy group
# Experimental: A clinical trial is run to determine whether castration-resistant metastatic prostate cancer tumor microenvironment phenotypes correlate to clinical responses when patients are treated with a combination of Navicixizumab/chemotherapy or Navicixizumab/PARP inhibitor in the third-line setting. […] Patients receive either Navicixizumab/chemotherapy (BRCA WT) or Navicixizumab/PARP inhibitor (BRCA mutant). RNA gene signatures are analyzed from tumor samples acquired before any treatments and TME phenotypes are determined. Patients are followed for clinical response, progression-free survival and overall survival. […] BRCA WT prostate cancer patients receive a regimen of Navicixizumab plus chemotherapy (e.g., docetaxel, cabazitaxel etc.). BRCA mutant prostate cancer patients receive a regimen of Navicixizumab plus a PARP inhibitor (e.g., Rucaparib, Olaparib, etc.). […] The correlation between each TME phenotype is tested against clinical outcome data. In tumors that are biomarker positive, represented by angiogenic (A) and immune suppressed (IS) phenotypes, the use of Navicixizumab combinations confers benefit in comparison to patients classified as biomarker negative, represented by immune active (IA) and immune desert (ID) TME phenotype classes as shown in the TABLE 29 and TABLE 30.
# [3] = test system: platinum-resistant or platinum-sensitive recurrent triple negative breast cancer; experiment: Clinical trial of PARP inhibitor, immune checkpoint inhibitor and navicixizumab, ORR by TME phenotype; settings: n = 20 per treatment group
# Experimental: A clinical trial is run to determine whether the triple negative breast cancer (TNBC) tumor microenvironment phenotypes correlate to clinical responses when patients are treated with a PARP inhibitor, an immune checkpoint inhibitor, and Navicixizumab after recurrence on platinum-based chemotherapy. The analysis includes samples from two different cohorts (one consisting of platinum-sensitive patients and one consisting of platinum-resistant patients). 40 patients from each cohort are randomized to 2 different treatment arms (20 patients in each arm). Patients are randomized to receive either (i) a PARP inhibitor and an immune checkpoint inhibitor or (ii) a PARP inhibitor, an immune checkpoint inhibitor and Navicixizumab. RNA gene signatures are analyzed from tumor samples acquired before the treatments and TME phenotypes are determined. Patients are followed for clinical response.
# TNBC patients are randomized to receiving a regimen of PARP inhibitor (olaparib, rucaparib, niraparib, etc.) plus an immune checkpoint inhibitor (anti-PD-(L)1—i.e., an inhibitor to PD-1 or PD-L1) therapy, or a regimen of PARP inhibitor/immune checkpoint inhibitor/Navicixizumab. The combination of PARP inhibitor/immune checkpoint inhibitor/Navicixizumab increases overall response rate in patients with TNBC compared to the regimen of PARP inhibitor/immune checkpoint inhibitor alone in both the platinum-sensitive and platinum-resistant cohorts as shown in TABLE 37. […] Eighty (80) total patients are enrolled, 20 in each of the treatment groups across the two cohorts with equal representation across the 4 stromal phenotypes (5 in each phenotype per treatment group). The correlation between each TME phenotype is tested against clinical outcome data. In immune active (IA), immune suppressed (IS), and angiogenic (A) patients the use of the regimen of PARPi/immune checkpoint inhibitor/Navicixizumab confers benefit in comparison to patients classified to immune desert (ID) TME phenotype classes as shown in the TABLE 38.
# [4] = test system: platinum-resistant or platinum-sensitive recurrent ovarian cancer; experiment: Clinical trial of PARP inhibitor and navicixizumab in PARP naive and PARP resistant cohorts, ORR by TME phenotype
# Experimental: A clinical trial is run to determine whether ovarian cancer tumor microenvironment phenotypes correlate to clinical responses when patients are treated with a PARP inhibitor, and navicixizumab in PARP naïve patients or patients that previously progressed on PARP inhibitor. The analysis includes samples from two different cohorts (one consisting of PARP inhibitor naïve patients and one consisting of PARP resistant patients). 40 patients from each cohort are randomized to 2 different treatment arms (20 patients in each arm). Patients are randomized to receive either a PARP inhibitor in combination with navicixizumab or PARP inhibitor monotherapy (PARP naïve cohort) or PARP inhibitor in combination with navicixizumab or navicixizumab monotherapy (PARP resistant). RNA gene signatures are analyzed from tumor samples acquired before the treatments and TME phenotypes are determined. Patients are followed for clinical response.
# Ovarian cancer patients are randomized to receiving a regimen of PARP inhibitor (Olaparib, Rucaparib, Niraparib, etc.) plus navicixizumab, PARP monotherapy (PARP naive) or Navicixizumab monotherapy. The combination of PARP inhibitor/Navicixizumab increases overall response rate in patients with recurrent ovarian cancer compared to navicixizumab alone in both the PARP naive and PARP resistant cohorts as shown in TABLE 35. […] Eighty (80) total patients are enrolled, 20 in each of the treatment groups across the two cohorts with equal representation across the 4 stromal phenotypes (5 in each phenotype per treatment group). The correlation between each TME phenotype is tested against clinical outcome data. In immune suppressed (IS), and angiogenic (A) patients the use of the regimen of PARPi/Navicixizumab confers benefit in comparison to patients classified to immune active (IA) and immune desert (ID) TME phenotype classes as shown in the TABLE 36.
# [5] = PARP resistant cohort, n = 20 per treatment group
molecule,measurement,setting,value
B1,ORR (%),[1]; A (n = 15),60%
same,PFS (months),[1]; A (n = 15),11.5 months
same,ORR (%),[1]; Biomarker Negative (n = 30),20%
same,PFS (months),[1]; Biomarker Negative (n = 30),5.7 months
same,ORR (%),"[1]; Biomarker Positive (n = 30), BRCA WT, hormone receptor-positive",63.4%
same,PFS (months),[1]; Biomarker Positive (n = 30),12.3 months
same,ORR (%),[1]; IA (n = 15),26.7%
same,PFS (months),[1]; IA (n = 15),6.0 months
same,ORR (%),[1]; ID (n = 15),13.3%
same,PFS (months),[1]; ID (n = 15),5.4 months
same,ORR (%),[1]; IS (n = 15),66.7%
same,PFS (months),[1]; IS (n = 15),13.1 months
same,ORR (%),[2]; A (n = 10),54%
same,OS (months),[2]; A (n = 10),19.0 months
same,PFS (months),[2]; A (n = 10),13.5 months
same,ORR (%),[2]; Biomarker Negative (n = 20),34%
same,OS (months),[2]; Biomarker Negative (n = 20),11.9 months
same,PFS (months),[2]; Biomarker Negative (n = 20),9.8 months
same,ORR (%),"[2]; Biomarker Positive (n = 20), BRCA WT",56%
same,OS (months),[2]; Biomarker Positive (n = 20),20.1 months
same,PFS (months),[2]; Biomarker Positive (n = 20),14.2 months
same,ORR (%),[2]; IA (n = 10),37%
same,OS (months),[2]; IA (n = 10),12.0 months
same,PFS (months),[2]; IA (n = 10),10.9 months
same,ORR (%),[2]; ID (n = 10),31%
same,OS (months),[2]; ID (n = 10),11.8 months
same,PFS (months),[2]; ID (n = 10),8.7 months
same,ORR (%),[2]; IS (n = 10),58%
same,OS (months),[2]; IS (n = 10),21.2 months
same,PFS (months),[2]; IS (n = 10),14.7 months
B2,Overall response rate (ORR),[3]; Platinum-sensitive cohort,80%
B3,Overall response rate (ORR),[3]; Platinum-resistant cohort,45%
B4,Overall response rate (ORR),[4]; [5],25%
B5,Overall response rate (ORR),"[4]; PARP naive cohort, TME phenotype A (n = 5)",100
same,Overall response rate (ORR),"[4]; PARP naive cohort, TME phenotype IA (n = 5)",40
same,Overall response rate (ORR),"[4]; PARP naive cohort, TME phenotype ID (n = 5)",40
same,Overall response rate (ORR),"[4]; PARP naive cohort, TME phenotype IS (n = 5)",80
same,Overall response rate (ORR),"[4]; PARP resistant cohort, TME phenotype A (n = 5)",60
same,Overall response rate (ORR),"[4]; PARP resistant cohort, TME phenotype IA (n = 5)",20
same,Overall response rate (ORR),"[4]; PARP resistant cohort, TME phenotype ID (n = 5)",20
same,Overall response rate (ORR),"[4]; PARP resistant cohort, TME phenotype IS (n = 5)",60
B6,Overall response rate (ORR),"[4]; PARP naiive cohort, n = 20 per treatment group",65%
same,Overall response rate (ORR),[4]; [5],40%
